Test results reported in patent US20260242515A1 (DUALITY BIOLOGICS SHANGHAI, published 2026).

Assays:
[1] = biological target: T1, Monkey ADAM9 protein (ACRO, Cat. No. AD9-C52H7) (cynomolgus monkey, UniProt A0A2K5X4X8 29-697); assay: SPR (Biacore 8K), antibody captured by anti-human Fc on CM5, monkey ADAM9 as analyte
T1 construct: Bought protein; also called cynomolgus ADAM9 protein; monkey ADAM9 antigen
T1 sequence: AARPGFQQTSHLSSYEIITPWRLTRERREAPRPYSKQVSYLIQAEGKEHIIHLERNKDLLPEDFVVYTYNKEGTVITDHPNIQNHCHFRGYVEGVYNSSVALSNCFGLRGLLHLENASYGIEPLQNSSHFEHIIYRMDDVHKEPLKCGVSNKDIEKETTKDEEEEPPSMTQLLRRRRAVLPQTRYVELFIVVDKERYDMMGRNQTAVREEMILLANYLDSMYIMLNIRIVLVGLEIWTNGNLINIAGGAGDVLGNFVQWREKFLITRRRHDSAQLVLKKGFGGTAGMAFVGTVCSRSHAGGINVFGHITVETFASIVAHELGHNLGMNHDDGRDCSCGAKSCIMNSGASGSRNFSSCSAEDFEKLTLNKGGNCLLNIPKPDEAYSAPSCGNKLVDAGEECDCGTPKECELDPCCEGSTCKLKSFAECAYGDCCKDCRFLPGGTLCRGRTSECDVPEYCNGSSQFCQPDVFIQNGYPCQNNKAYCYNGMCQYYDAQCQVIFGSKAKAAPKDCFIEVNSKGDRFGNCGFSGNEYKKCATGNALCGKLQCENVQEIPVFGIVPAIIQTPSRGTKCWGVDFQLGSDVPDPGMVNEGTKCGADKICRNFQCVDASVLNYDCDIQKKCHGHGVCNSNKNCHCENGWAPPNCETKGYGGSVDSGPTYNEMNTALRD
Description: (§1) Chip preparation: The mouse anti-human IgG (Fc) antibody (Cat. No. 29234600, Cytiva) was diluted to 25 μg/mL in immobilization buffer (10 mM sodium acetate, pH 5.0), specifically by adding 950 μL of the immobilization buffer to 50 μL of the mouse anti-human IgG (Fc) antibody. The dilution was used for immobilization in eight channels. First, the surface of the CM5 chip was activated with 400 mM EDC and 100 mM NHS at a flow rate of 10 μL/min for 420 seconds. Then, 25 μg/mL of the mouse anti-human IgG (Fc) antibody was injected into the test channels at a flow rate of 10 μL/min for approximately 360 seconds, with the level of immobilization at approximately 7000 to 14000 RU. Finally, the chip was blocked with 1 M ethanolamine at a flow rate of 10 μL/min for 420 seconds. The reference channels underwent the same procedures as the test channels.
(§2) Ligand capture: Antibodies Ab10, Ab15, Ab16, and hMAB-A (2I.2) were diluted to 4 μg/mL in running buffer (containing 10 mM N-(2-hydroxyethyl)piperazine-N-2-ethanesulfonic acid (HEPES), 150 mM sodium chloride (NaCl), 3 mM ethylenediaminetetraacetic acid (EDTA), 0.005% Tween-20, pH adjusted to 7.4) and injected into the test channels for human IgG (Fc) capture at a flow rate of 10 μL/min at approximately 200 RU. No ligand capture was performed in the reference channels.
(§3) Analyte multi-cycle analysis: Human and cynomolgus ADAM9 proteins (human ADAM9 protein purchased from ACRO, Cat. No. AD9-H52H7; monkey ADAM9 protein purchased from ACRO, Cat. No. AD9-C52H7) were diluted 2-fold in running buffer (Table 10). The diluted human or cynomolgus ADAM9 protein was sequentially injected into the test channels and the reference channels at a flow rate of 30 μL/min, with corresponding association and dissociation times. Both the association and dissociation steps were performed in the running buffer. After each concentration analysis, the chip was regenerated with 3 M magnesium chloride at a flow rate of 20 μL/min for 30 seconds to wash away the ligand and any undissociated analyte. For the next concentration analysis, the test channels required re-capture of the same amount of ligand.

[2] = biological target: T2, Human ADAM9 protein (ACROBiosystems, Cat. No. AD9-H52H7) (human, UniProt Q13443 29-697); assay: SPR (Biacore 8K), antibody captured by anti-human Fc on CM5, ADAM9 as analyte
T2 construct: Bought protein; also called Human ADAM-His protein; human ADAM9 antigen; not shown: His tag
T2 sequence (looked up): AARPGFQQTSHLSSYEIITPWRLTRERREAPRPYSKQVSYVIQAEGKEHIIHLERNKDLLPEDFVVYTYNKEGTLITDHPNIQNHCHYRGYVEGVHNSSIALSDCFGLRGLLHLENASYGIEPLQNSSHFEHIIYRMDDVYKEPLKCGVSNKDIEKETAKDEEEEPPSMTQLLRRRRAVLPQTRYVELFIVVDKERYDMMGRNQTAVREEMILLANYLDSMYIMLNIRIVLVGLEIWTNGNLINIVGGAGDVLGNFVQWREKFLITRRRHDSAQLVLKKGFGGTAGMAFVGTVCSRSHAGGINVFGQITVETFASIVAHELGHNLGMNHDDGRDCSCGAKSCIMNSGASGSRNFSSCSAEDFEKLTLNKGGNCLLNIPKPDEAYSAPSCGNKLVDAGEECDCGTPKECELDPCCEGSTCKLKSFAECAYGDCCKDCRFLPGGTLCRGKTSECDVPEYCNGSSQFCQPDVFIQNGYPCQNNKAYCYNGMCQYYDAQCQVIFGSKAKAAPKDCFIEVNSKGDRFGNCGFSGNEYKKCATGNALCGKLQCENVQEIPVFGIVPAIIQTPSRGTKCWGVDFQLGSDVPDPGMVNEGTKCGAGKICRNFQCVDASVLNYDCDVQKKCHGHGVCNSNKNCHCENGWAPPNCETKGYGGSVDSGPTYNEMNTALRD
Description: as §1, §2, §3

B1: Ab15 (antibody, human IgG1, kappa, V domains shown)
VH: QVQLQQPGAELKKPGASVKVSCKASGFTFPLYWMNWVRQRPGRGLEWIGRIIPIFGHTKYNEKFKDRATMTADESSSTAYMELSSLTSEDSAVYYCARGGYYYYPREGFLDYWGQGTSVTVSS
VL: DIVMTQSPDSLSVSPGERATINCRSSQSVDYSGDSYMNWYQQKPGQSPRLLIYAASDRESGVPDRFSGSGSGTDFTLKISNVEEEDAATYYCQQSREDPFTFGQGTRVEIKR
notes: Humanized anti-ADAM9 IgG1/kappa; also called Ab15-V (variable regions)
Kd [1]: 9.47 nM | koff [1]: 0.000461 s⁻¹ | kon [1]: 48700 M⁻¹ s⁻¹ | Kd [2]: 4.03 nM | koff [2]: 0.000697 s⁻¹ | kon [2]: 173000 M⁻¹ s⁻¹

B2: Ab16 (antibody, human IgG1, kappa, V domains shown)
VH: QVQLQQPGTEVVKPGASVKLSCKASGFTFPLYWMHWVRQRPGRGLEWIGRIIPIFGHTKYNEKFKNKATLTADESSSTAYMELRSLTSDDSAVYYCARGGYYYYPREGFLDYWGQGTSVTVSS
VL: DIVMTQSPASLSVSPGERASISCRSSQSVDYSGDSYMNWYQQKPGQSPRLLIYAASDRESGVPDRFSGSGSGTDFTLKISRVEEEDAGTYYCQQSREDPFTFGQGTKVDIKR
notes: Humanized anti-ADAM9 IgG1/kappa; also called Ab16-V (variable regions)
Kd [1]: 8.61 nM | koff [1]: 0.000528 s⁻¹ | kon [1]: 61300 M⁻¹ s⁻¹ | Kd [2]: 5.01 nM | koff [2]: 0.000816 s⁻¹ | kon [2]: 163000 M⁻¹ s⁻¹
